“Also recorded” adds a separate entry of the source. Non-standard residues stand in square brackets, D forms with d. No end group written: not given here. pS = N[C@@H](COP(=O)(O)O)C(=O)O

For test [1], the system named is p38 MAPK phosphorylation. The experiment in a line: p38 MAPK phosphorylation (Western blot) in anisomycin-treated rat aorta. The test is classed as cell-based. The following applies: NiPp 500 μM 30 min pretreatment, then anisomycin 200 μM 1 h, immunoblot. The protocol:
RA rings were suspended in a muscle bath and incubated with either buffer alone (Ctrl), Aniso (200 μM) for 1 h, or NiPp (500 μM) for 30 min followed by Aniso (200 μM) for 1 h. […] Proteins were extracted […] immunoblotted to examine p38MAPK phosphorylation. Quantification of relative phosphorylation to total p38MAPK level is shown. n=10, *p<0.05 in one-way ANOVA with Tukey post-test. NiPp restores endothelial dysfunction and reduced p38 MAPK phosphorylation induced by anisomycin in RA.
RA rings were suspended in a muscle bath and incubated with either buffer alone (Ctrl), Aniso (200 μM) for 1 h, or NiPp (500 μM) for 30 min followed by Aniso (200 μM) for 1 h. […] The force generated was determined and was adjusted to the weight and length of the tissue. […] Proteins were extracted and phosphorylation of p38 MAPK was determined by Western blot analysis. […] Data are expressed as mean±SD.
p38 MAPK activation with Anisomycin. […] After treatments, endothelial-dependent relaxation was determined or tissues were snap-frozen for Western blot analysis.
(§1) Western blot Analysis. […] The protein-antibody complexes were visualized and quantified using the Odyssey Infrared Imaging System. Phosphorylation was calculated as a ratio of the phosphorylated protein to total protein and was then normalized to the untreated tissues (Ctrl) with the control value set as 1.0.

Test [2] has as its system p38 MAPK phosphorylation. The experiment in a line: p38 MAPK phosphorylation (Western blot) in rat aorta after subfailure stretch injury. The test is classed as cell-based. The following applies: NiPp 500 μM, 1 h, immunoblot. The procedure: Freshly isolated rat aorta (RA) was subjected to subfailure stretch and incubated in PL in the absence (S) or presence of NiPp (500 μM) for 1 h at room temperature. […] The percent relaxation was determined as a change to the maximal PE-induced contraction. n=5 rats; #p<0.05, two-way ANOVA. […] Quantification of relative phosphorylation to total p38MAPK level is shown. N=10. *p<0.05, in one-way ANOVA with Tukey post-test. NiPp restores endothelial dysfunction and reduced p38 MAPK phosphorylation induced by stretch injury in RA.
Vascular injury and treatment of RA. Abdominal RA was subjected to subfailure stretch to the haptic endpoint (˜200% the resting length) for 10 s and repeated twice as previously described and a segment was reserved as non-stretched control. The tissues were then cut into 1-2 mm rings and incubated for 1 h at room temperature in PL with or without NiPp (500 μM). To induce acidotic injury, thoracic RA were cut into 1-2 mm rings and pretreated in the absence or presence of NiPp (500 μM) in PL for 30 min. […]
as §1

A further test deals with CKD18 (Homo sapiens, UniProt Q07002). Put plainly: SelectScreen kinase profiling. The following applies: NiPp 100 μM; kinases inhibited at >40% are listed. The test is classed as biochemical. The protocol:
(§2) Kinase profiling. NiPp was dissolved in DMSO, screened at a single concentration of 100 μM using in vitro kinase assays (SelectScreen Kinase Profiling Service; ThermoFisher Scientific, Madison WI) including the Z'LYTE and Adapta kinase activity assays and the LanthaScreen Eu Kinase Binding Assay). Candidate interactions were predicted using STRING Version 11 (www.string-db-org) with the human database at confidence=0.7.
(§3) As injury leads to increased p38 MAPK phosphorylation and decreased Niban phosphorylation, one of the mechanisms by which NiPp restores function after endothelial injury can be kinase inhibition. A kinase profiling was performed using three different profiling platforms that measure activity and kinase/substrate binding. Kinases of which activity or substrate binding were inhibited by NiPp (100 μM) at >40% are listed and shown in a kinase dendrogram (FIGS. 14A, 14B, 19A and 19B).
(§4) The top two candidate kinase targets of NiPp were mitogen- and stress-activated kinase 1 (MSK1; also known as RPS6KA5) and p38 MAPKα (MAPK14), which were inhibited by 66% and 61%, respectively. MSK1 is an AGC kinase of the RSK family that is phosphorylated by ERK and p38 MAPK in response to cellular stress. Other kinases inhibited by the NiPp include CKD18 of the CMGC kinase family), FGFR1 of the TK family, and the PIK3R3 kinase (FIGS. 19A and 19B).

The next test addresses FGFR1 (Homo sapiens, UniProt P11362). The experiment in a line: SelectScreen kinase profiling. The test is classed as biochemical. The note with it: NiPp 100 μM; kinases inhibited at >40% are listed. The procedure:
as §2, §3, §4

In the next test the target is PIK3R3 kinase (Homo sapiens, UniProt Q92569). Put plainly: SelectScreen kinase profiling. The note with it: NiPp 100 μM; kinases inhibited at >40% are listed. Type of test: biochemical. The protocol: as §2, §3, §4
Sequence of PIK3R3 kinase (P42336 whole entry partner): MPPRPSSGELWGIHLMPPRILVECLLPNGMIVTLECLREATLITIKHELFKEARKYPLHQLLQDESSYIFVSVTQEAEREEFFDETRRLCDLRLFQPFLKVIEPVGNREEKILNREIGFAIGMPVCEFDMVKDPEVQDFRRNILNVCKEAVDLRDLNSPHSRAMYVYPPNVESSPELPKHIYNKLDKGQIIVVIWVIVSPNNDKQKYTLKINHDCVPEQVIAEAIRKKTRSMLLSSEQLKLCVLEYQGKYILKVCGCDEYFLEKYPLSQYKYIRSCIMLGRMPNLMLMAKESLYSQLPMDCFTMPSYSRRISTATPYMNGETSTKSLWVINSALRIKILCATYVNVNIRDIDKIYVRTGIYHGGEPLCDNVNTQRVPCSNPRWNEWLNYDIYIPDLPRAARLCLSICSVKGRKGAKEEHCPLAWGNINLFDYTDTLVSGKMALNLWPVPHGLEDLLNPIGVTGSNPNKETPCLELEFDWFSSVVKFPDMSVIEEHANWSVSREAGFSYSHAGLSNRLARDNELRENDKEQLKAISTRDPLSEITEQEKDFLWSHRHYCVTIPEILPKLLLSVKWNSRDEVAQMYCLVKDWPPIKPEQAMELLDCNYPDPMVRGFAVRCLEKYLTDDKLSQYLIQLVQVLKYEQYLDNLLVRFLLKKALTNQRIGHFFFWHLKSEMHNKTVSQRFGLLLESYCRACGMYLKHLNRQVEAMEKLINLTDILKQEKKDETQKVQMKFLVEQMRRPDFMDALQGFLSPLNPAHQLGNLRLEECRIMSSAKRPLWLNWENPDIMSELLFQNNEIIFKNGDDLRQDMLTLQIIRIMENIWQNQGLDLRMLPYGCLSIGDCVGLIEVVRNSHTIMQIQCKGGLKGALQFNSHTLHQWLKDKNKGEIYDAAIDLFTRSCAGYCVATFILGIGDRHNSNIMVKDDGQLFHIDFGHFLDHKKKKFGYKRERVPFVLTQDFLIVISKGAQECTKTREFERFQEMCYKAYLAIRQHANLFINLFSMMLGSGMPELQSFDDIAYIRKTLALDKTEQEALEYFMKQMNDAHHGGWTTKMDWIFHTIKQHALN

Sequence of CKD18 (Q07002 whole entry): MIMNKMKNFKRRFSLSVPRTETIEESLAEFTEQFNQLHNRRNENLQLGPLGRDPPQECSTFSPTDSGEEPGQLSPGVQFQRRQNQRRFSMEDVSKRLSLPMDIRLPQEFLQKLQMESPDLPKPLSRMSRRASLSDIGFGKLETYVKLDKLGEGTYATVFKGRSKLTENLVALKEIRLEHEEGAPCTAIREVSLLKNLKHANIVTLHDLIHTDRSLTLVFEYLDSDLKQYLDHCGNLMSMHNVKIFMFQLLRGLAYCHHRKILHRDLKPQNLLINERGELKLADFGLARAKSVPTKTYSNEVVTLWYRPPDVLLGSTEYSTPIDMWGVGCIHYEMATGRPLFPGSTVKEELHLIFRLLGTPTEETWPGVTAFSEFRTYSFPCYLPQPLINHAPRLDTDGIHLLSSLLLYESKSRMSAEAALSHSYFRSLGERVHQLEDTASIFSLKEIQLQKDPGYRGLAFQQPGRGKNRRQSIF
Sequence of CKD18 (Q8ND76 whole entry partner): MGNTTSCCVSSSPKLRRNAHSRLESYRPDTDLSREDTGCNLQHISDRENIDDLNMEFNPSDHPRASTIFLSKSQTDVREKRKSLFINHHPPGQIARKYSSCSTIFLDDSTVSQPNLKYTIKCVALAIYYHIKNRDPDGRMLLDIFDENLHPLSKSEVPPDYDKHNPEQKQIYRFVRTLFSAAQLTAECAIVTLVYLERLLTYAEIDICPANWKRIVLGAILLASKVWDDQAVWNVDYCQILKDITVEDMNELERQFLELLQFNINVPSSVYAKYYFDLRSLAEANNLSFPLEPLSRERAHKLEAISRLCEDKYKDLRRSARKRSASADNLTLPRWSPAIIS
Sequence of FGFR1 (P11362 22-822): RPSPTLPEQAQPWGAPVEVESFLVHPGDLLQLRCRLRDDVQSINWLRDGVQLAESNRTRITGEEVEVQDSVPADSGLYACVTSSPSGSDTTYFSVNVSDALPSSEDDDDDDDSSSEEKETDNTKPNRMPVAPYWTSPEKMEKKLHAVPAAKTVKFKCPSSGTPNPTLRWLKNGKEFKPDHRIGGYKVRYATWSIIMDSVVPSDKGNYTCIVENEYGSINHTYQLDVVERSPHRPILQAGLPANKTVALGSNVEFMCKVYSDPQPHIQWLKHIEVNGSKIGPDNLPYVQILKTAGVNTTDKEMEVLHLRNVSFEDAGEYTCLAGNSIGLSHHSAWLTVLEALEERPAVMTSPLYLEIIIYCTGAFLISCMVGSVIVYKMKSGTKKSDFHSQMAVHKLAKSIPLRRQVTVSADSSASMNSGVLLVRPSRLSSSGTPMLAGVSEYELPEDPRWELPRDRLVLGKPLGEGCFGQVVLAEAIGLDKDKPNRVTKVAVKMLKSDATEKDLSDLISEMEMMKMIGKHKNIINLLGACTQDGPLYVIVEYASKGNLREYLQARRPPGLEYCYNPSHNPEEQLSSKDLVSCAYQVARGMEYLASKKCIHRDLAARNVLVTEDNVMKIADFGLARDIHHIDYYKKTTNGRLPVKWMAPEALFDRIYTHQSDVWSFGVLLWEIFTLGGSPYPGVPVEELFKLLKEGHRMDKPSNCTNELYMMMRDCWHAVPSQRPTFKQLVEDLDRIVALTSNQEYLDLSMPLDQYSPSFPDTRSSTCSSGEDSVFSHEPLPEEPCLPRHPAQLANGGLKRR

In the case of “YARAAARQARASPAARRA(pS)AILPG (YARAAARQARASPAARRA[pS]AILPG) [NiPp, Cell-permeant phosphopeptide mimetic of Niban: transduction domain … conjugated to the region surrounding serine 602 of Niban]”, in the test on p38 MAPK phosphorylation [1], the “anisomycin-induced p38 MAPK phosphorylation relative to total p38 MAPK” value is “decreased; also recorded: reduced; also recorded: prevented”. In the test with p38 MAPK phosphorylation [2], the “p38 MAPK phosphorylation relative to total p38 MAPK after stretch injury” value is “reduced”. The “inhibition of CKD18” value with CKD18 is listed as “inhibited”. For the same substance, in the test with FGFR1, the “inhibition of FGFR1” value is listed as “inhibited”. The “inhibition of PIK3R3 kinase” value in the test with PIK3R3 kinase is listed as “inhibited”.
